Target: T1, Full length Top2 (HFP185), purified (budding yeast (S. cerevisiae), UniProt P06786 1-1428)
T1 construct: Topoisomerase II (Top2), yeast, full length; Called a homodimer in the methods; also called Topoisomerase II; yeast Top2
T1 sequence (looked up): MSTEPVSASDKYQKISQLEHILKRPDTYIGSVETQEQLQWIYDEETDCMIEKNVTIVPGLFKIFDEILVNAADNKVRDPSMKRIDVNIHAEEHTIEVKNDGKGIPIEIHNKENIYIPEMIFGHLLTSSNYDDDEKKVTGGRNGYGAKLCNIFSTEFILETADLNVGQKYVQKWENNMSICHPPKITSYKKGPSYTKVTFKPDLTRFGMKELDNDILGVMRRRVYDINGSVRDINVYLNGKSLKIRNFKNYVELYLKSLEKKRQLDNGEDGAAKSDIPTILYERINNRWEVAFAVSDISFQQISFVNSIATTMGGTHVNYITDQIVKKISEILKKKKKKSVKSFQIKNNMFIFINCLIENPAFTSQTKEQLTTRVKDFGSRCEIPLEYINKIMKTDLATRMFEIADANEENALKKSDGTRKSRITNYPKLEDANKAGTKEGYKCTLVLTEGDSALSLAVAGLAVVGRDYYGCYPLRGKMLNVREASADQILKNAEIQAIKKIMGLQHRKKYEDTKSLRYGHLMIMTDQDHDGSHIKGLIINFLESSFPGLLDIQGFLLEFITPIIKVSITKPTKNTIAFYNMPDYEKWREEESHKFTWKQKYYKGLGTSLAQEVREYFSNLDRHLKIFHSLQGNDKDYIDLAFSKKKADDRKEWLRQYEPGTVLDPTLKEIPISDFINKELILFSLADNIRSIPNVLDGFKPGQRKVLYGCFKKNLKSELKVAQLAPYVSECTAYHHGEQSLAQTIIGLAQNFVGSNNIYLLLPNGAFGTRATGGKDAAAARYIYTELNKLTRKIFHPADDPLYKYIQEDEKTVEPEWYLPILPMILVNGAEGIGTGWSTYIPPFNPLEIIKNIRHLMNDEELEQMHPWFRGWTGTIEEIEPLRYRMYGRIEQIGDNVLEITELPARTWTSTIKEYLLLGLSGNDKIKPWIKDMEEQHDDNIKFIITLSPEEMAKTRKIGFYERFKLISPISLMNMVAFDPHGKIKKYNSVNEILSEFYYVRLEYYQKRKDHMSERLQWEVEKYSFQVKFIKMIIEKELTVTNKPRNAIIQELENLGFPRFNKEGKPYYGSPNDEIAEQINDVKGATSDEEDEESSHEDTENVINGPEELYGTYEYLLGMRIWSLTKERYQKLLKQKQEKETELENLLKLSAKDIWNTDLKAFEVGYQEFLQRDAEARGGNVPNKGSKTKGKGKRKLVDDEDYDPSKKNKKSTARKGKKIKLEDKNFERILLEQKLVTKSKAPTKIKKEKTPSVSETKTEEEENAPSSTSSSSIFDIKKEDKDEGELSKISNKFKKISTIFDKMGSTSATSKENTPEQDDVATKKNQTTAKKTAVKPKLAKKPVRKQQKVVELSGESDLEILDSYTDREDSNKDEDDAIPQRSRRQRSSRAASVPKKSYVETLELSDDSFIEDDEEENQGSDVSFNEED
Assay: pull-down; about 0.1 mg Uls1 fragment (bait) pre-bound to Strep-Tactin superflow beads; 200 ul Top2 (prey, 0.1 mg/ml) added, 1 h at 4 C; Pulldown buffer 25 mM HEPES pH 7.5, 150 mM KCl, 3 mM MgCl2, 5% glycerol, 1 mM DTT, 0.1% NP-40; three washes
Settings: both partners purified

B1: Uls1 fragment 350-655, purified bait (domain or fragment, budding yeast (S. cerevisiae), UniProt Q08562 350-655, looked up)
chain: PSKNMDHTTHNSHDSEQKNSSIIILSDEDESGAGINDIESPLKVSEPNTADALRSSVPEVISLLDLPNIDLNNSVIKEASGSNSIPTSETDAQSSSSSVLQGTIMTEQATQSSQHECNSSLDTLKKNHQKLLKDLNSRESELRNALSCCKTNSEILRRKLSRREKEVSDAEKHWQLLLTSMARGGRTISSTQQILVDEAENQLNKLKEKRQLTKSKLDSINLKMYNYNEQWKSFVHSKNINLQKSLAALERSARDSKASATVNKRNECLAEKEKLDQMLKEGTLSFSTYKQLTGEIQQKLNDLKLG
notes: Tags are inferred from the resins used; also called bait protein; source: E. coli BL21(DE3)RIL, purified (TALON resin)
- binding result: binds

Reference: paper PMC6614809, “The ATP-dependent chromatin remodelling enzyme Uls1 prevents Topoisomerase II poisoning” (Nucleic Acids Research, 2019)
